Experimental data taken from the supplement of paper PMC9732359.
± gives the uncertainty stated by the source.

Experiment: protein stability index of a GFP-peptide fusion (yeast GPS) (PSI 1-4); higher = more stable; sorted into four equal gates, so the index is relative within each strain
Details: doa10∆
Method in brief: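 Plasmids isolated from each sorting gate were PCR-amplified and Illumina-sequenced, and barcodes assigned the reads to strains. The gates, four of equal size, were set by GFP/Cherry fluorescence ratio on mid-log cultures in leucine-free medium. These cultures were yeast carrying a pooled library of tiled 17-residue yeast protein peptides fused downstream of GFP on a plasmid that also expresses Cherry. The protein stability index is the sum of every gate's read frequency times its gate number.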

Compared with VAFVCSPISDSRDELIR [RPN10], VAGAGAASGAAAAGGDA [RPP1B] is higher in protein stability index: 2.42 ± 0.093 for the first, 3.09 ± 0.18 for the second.

Same assay, conditions: pdr5∆

Compared with TKKKRKPTEVNDSENNS [ITC1], TKKLIQKTVFDELCKLV [SRP54] is lower in protein stability index: 3.21 ± 0.081 for the first, 1.51 ± 0.096 for the second.

TKKPLMVKNVKPSSPPD [SIR4] and TKPEVASDMSDEDIITI [CDC53] are within error of each other in protein stability index: 2.66 ± 0.039 for the first, 2.56 ± 0.24 for the second.

First: TKQRLDAYYDLELRNSV [PRP8]
Second: TKRSIAIVFEEIKNWIS [YMR129W/POM152]
The protein stability index of the first is higher: 2.93 ± 0.039 for the first, 1.82 ± 0.045 for the second.

First: TLERVHLSYCSNLTIYP [GRR1]
Second: TLFVRDQDSAVVSSNIK [QCR2]
The protein stability index of the first is higher: 3 ± 0.067 for the first, 2.52 ± 0.2 for the second.

Going from TLIDLVKHSPGAIKPFT [ECM29] to TLISENWWHSEFEIPVS [BRR2], the protein stability index falls from 2.93 ± 0.15 to 1.59 ± 0.058.

First: TLIVVPFNQGSKQDVEA [FAS2]
Second: TLQDFHLIFSNARIYNT [SNF2]
The protein stability index of the first is higher: 3.2 ± 0.12 for the first, 2.17 ± 0.1 for the second.

Going from TLQLGQEFQLKQINHQG [RPB4] to TLSEPVQGELKPTVILK [FAS1], the protein stability index falls from 3.28 ± 0.15 to 2.22 ± 0.059.

Going from TLVKGPKEPRLKSQMDT [SKI6] to TMANILYYPQKPLGTTR [RPB2], the protein stability index falls from 3.05 ± 0.13 to 2.47 ± 0.095.

Compared with TMFTAEQSELLKAQITS [SNF2], TMTMDVFNDAHVLNKVT [RPN1] is lower in protein stability index: 2.5 ± 0.056 for the first, 2.25 ± 0.053 for the second.

Compared with TMTYEEVAKRLVELMFI [FAS1], TNAAFPFHDPEARLFNI [ECM29] is higher in protein stability index: 2.22 ± 0.071 for the first, 2.87 ± 0.12 for the second.

Going from TNGNNAGGGSNKSSVRP [MED6] to TNIHEPQYINYSSIPSL [SSN2], the protein stability index falls from 3.47 ± 0.097 to 2.46 ± 0.14.

First: TNKGPLAQIWLASNMSN [MCD1]
Second: TNKLLFKRVSQTFEAKL [NUT1]
The protein stability index of the first is lower: 1.26 ± 0.054 for the first, 1.7 ± 0.046 for the second.

First: TNTHPNFLSKIRNINVQ [SNF2]
Second: TPDPSELAAKEEPAKEE [FAS2]
The protein stability index of the first is lower: 1.68 ± 0.063 for the first, 2.821 ± 0.024 for the second.

First: TPDTKNFFHAKKKDPVN [SNF12]
Second: TPEKDLFIGLFTRPLFV [YCS4]
The protein stability index of the first is higher: 2.97 ± 0.079 for the first, 1.32 ± 0.079 for the second.

Going from TPMTRISELPPQIRQEI [YGL172W/NUP49] to TPPVVVVGVVGYVETPR [RPL3], the protein stability index falls from 3.11 ± 0.055 to 2.33 ± 0.068.

TPSDLSESGSKLNVDQF [POP1] and TPSFSFGAKSDENKAGA [YJL041W/NSP1] are within error of each other in protein stability index: 3.4 ± 0.094 for the first, 3.19 ± 0.16 for the second.

Compared with TQAIADIVQYHLELYTS [PRE3], TQDESEIKDAETSCDNY [SMC4] is higher in protein stability index: 1.72 ± 0.057 for the first, 2.62 ± 0.073 for the second.

TQEFSKNYTTETDNEMN [SIR3] and TQKDSARVSPRNNVANK [YAR002W/NUP60] are within error of each other in protein stability index: 3.49 ± 0.064 for the first, 3.52 ± 0.12 for the second.

Going from TQKRLAASVVGVGKRKV [RPL19A] to TQLDKLRPRKDSKDGTT [SMB1], the protein stability index rises from 1.32 ± 0.16 to 2.15 ± 0.28.

Going from TQLKKRAVSGVELRIYV [POP7] to TQVRVEFLEDTSRTIVR [RPS28A], the protein stability index rises from 2.23 ± 0.11 to 3.06 ± 0.13.

First: TRDEETTKLAFLVEYEG [SIR4]
Second: TRDETVSLIKKYKLISR [YML103C/NUP188]
The protein stability index of the first is higher: 3.06 ± 0.095 for the first, 2.56 ± 0.13 for the second.

Compared with TRFKAVVVVGDSNGHVG [RPS2], TRIFQALPRKLRRRTAS [POP1] is higher in protein stability index: 1.96 ± 0.064 for the first, 3.23 ± 0.11 for the second.

Compared with TRKGYIPSSKYAYMMNS [YLR018C/POM34], TRKSLNNAVRFSKQCLI [ECM29] is higher in protein stability index: 2.73 ± 0.12 for the first, 2.96 ± 0.061 for the second.

Compared with TRPISSQVLDLAKKIAP [SMC2], TRTIKQNNFHVLIDLLN [RGR1] is lower in protein stability index: 2.44 ± 0.097 for the first, 1.62 ± 0.13 for the second.

Going from TSADLKSKAEELTQVPS [UBP6] to TSDNLLTITKAAGANVD [RPP1B], the protein stability index falls from 3.22 ± 0.12 to 2.13 ± 0.056.

Going from TSDSESTLYKYLKESKR [SWI3] to TSFDRTKKTITPMGGFV [RPL3], the protein stability index rises from 2.66 ± 0.11 to 3.03 ± 0.12.

Going from TSGTSSEQFNVWDWNNW [GAL11] to TSILELGQLYVTMGAKD [RPN6], the protein stability index falls from 3.11 ± 0.11 to 2.85 ± 0.083.

TSNDASNKKETKKKRKP [ITC1] and TSNGLKKNPNWLEEYHP [FAS1] are within error of each other in protein stability index: 3.25 ± 0.075 for the first, 3.22 ± 0.15 for the second.

TSNNETNNGNDDNETEN [GRR1] and TSQKMKKMVYVLDSMTK [SRP54] are within error of each other in protein stability index: 3.28 ± 0.077 for the first, 3.12 ± 0.11 for the second.

Compared with TSRVTGILLLDSLIQLA [YJL039C/NUP192], TSSIFQESFNSVQNLDQ [NUT1] is higher in protein stability index: 1.77 ± 0.056 for the first, 2.64 ± 0.057 for the second.

Going from TSSRGRDHKSYSQSPPR [SMC4] to TSTDFPGFSKDAENEWN [RPC40], the protein stability index rises from 2.81 ± 0.056 to 3.1 ± 0.22.

TSTDGKKRSKARKETYS [HTB1] and TSTGTTIVGVKFNNGVV [PUP1] are within error of each other in protein stability index: 3.11 ± 0.14 for the first, 3.14 ± 0.11 for the second.

TSVDGKKRSKVRKETYS [HTB2] and TSVIQDLSEKILNDIET [BRR2] are within error of each other in protein stability index: 3.19 ± 0.14 for the first, 3.3 ± 0.11 for the second.

Compared with TTDKNTTDDKSMDTKKK [BRN1], TTDMISVLYQLSTSAFM [YML031W/NDC1] is lower in protein stability index: 3.51 ± 0.084 for the first, 1.64 ± 0.14 for the second.

Going from TTNNNNTNNNNTNNNNN [SWI1] to TTPKKIKHKHKKVKLAV [RPS31], the protein stability index falls from 3.5 ± 0.082 to 1.99 ± 0.1.

Compared with TTPVKLGPGIYCDPNTQ [RRP40], TTQGGLTSVTRHGFNRS [RPO21] is higher in protein stability index: 2.2 ± 0.076 for the first, 3.04 ± 0.08 for the second.

Going from TTTTANINEVKKASDLV [NUT1] to TTYTYQQPNPLQDLISV [ROX3], the protein stability index falls from 3.07 ± 0.067 to 1.81 ± 0.069.

TVASSKVGYTLPSHIIS [RPL4A] and TVEALDFREKALYIAMM [RET1] are within error of each other in protein stability index: 3.02 ± 0.052 for the first, 3.03 ± 0.096 for the second.

TVKLYLPEILNVLCVNI [ECM29] and TVKTNDELMVIYISNLV [RPN8] are within error of each other in protein stability index: 1.49 ± 0.045 for the first, 1.5 ± 0.063 for the second.

TVLCTPTGGKAKLSEGT [RPS27B] and TVNGQARDLATMTYEEV [FAS1] are within error of each other in protein stability index: 3.18 ± 0.079 for the first, 3.15 ± 0.056 for the second.

TVPEYLKTADNRDRSFQ [PGD1] and TVPNINFSGLNGGITNT [YOR098C/NUP1] are within error of each other in protein stability index: 3.07 ± 0.079 for the first, 3.35 ± 0.22 for the second.

Compared with TVQENELLKSSLQKAGS [AAR2], TVRVDKASTYGELVLDI [SNF12] is lower in protein stability index: 3.21 ± 0.088 for the first, 2.38 ± 0.053 for the second.

First: TVTSLDVVYALKRQGRT [HHF1]
Second: TVVGNASFGKNLQIRQL [DSN1]
The protein stability index of the first is higher: 3.26 ± 0.13 for the first, 2.7 ± 0.17 for the second.

Compared with TVVTVVSTAKFSGKYLK [RPL22A], TWIQQFKSTMLQVSEKD [ARP7] is lower in protein stability index: 3.13 ± 0.083 for the first, 1.86 ± 0.066 for the second.

Compared with TWSLILNECLKTIQINN [YML031W/NDC1], TWTNSKIFIKDPKFVNS [YML103C/NUP188] is higher in protein stability index: 1.62 ± 0.058 for the first, 2.05 ± 0.06 for the second.

Going from TYDKETITDLIEQGIPK [SIR4] to TYLTQEILILINDPTNK [SIN4], the protein stability index falls from 3.39 ± 0.051 to 1.55 ± 0.051.

Compared with TYQTERFTKFSDTLKEF [YDL116W/NUP84], VAADGKLVTYIVKFKQK [YLR335W/NUP2] is lower in protein stability index: 2.31 ± 0.056 for the first, 2.11 ± 0.054 for the second.

Compared with VAAKWNTSLISLFTYFR [PRP8], VAARMFHILLKLILEWV [ECM29] is lower in protein stability index: 1.97 ± 0.095 for the first, 1.64 ± 0.12 for the second.

VAATNTPIIFIGTGEHI [SRP54] showed a protein stability index of 3.03 ± 0.12.
